Reference: patent US20090286721A1 (published 2009)
Values belong to the binder of their own block, whether it stands above or below them.

Legend:
[1] = target: T1, P-selectin on thrombin-activated human platelets (human, UniProt P16109 42-830); experiment: ELISA on plate-coated thrombin-activated human platelets
T1 construct: whole, on cells
T1 sequence (looked up): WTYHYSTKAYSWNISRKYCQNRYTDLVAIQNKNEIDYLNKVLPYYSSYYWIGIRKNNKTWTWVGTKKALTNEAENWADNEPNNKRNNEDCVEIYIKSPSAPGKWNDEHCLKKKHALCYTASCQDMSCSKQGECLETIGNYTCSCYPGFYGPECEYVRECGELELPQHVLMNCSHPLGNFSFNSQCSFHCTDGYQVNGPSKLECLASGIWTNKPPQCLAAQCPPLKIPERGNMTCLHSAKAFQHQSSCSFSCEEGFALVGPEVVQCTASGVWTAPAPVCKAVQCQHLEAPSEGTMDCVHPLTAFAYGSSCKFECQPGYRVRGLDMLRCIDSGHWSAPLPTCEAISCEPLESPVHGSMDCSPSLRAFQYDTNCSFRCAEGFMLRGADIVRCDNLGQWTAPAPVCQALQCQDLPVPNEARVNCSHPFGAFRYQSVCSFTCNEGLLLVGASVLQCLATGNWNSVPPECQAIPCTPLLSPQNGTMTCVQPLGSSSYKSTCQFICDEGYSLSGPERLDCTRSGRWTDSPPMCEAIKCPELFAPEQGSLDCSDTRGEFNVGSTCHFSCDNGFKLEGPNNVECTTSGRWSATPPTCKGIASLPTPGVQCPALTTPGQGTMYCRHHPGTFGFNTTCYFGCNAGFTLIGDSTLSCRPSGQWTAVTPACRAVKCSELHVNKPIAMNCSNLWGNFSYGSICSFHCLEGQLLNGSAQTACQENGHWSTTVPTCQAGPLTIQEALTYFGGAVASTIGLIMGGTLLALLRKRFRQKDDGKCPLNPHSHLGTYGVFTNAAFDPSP
Method: The ability of purified HuSZ51-DSPAalpha1 to bind specifically to human or dog thrombin-activated platelets in vitro was investigated by ELISA. 96-Well plates were coated with a 100 μl solution containing 1×10⁶ thrombin-activated human or dog platelets per well and incubated overnight at 4° C. The coated plates were washed once with washing solution (PBS, pH 7.4 plus 0.05% Tween-20), and then incubated with 200 μl blocking solution (5% milk prepared in PBS) per well at 37° C. for 2 hours. The blocked plates were washed 3 times with washing solution, and then incubated with 100 μl washing solution containing various amounts of HuSZ51-DSPAalpha1, SZ51, or human IgG1 for 1 hour at 37° C. The plates were washed 3 times with washing solution, and then incubated with peroxidase-conjugated protein L (Pierce) for 1 hour at 37° C. The plates were washed 4 times with washing solution, and then incubated with 100 μl of TMB/E substrate (ZYMED) for 5 minutes at room temperature. The perioxidase reactions were stopped by the addition of 100 μl 1 N HCl, and the plates were read for absorbance at 450 nm within 5 minutes.

[2] = target: T2, recombinant human P-selectin (R&D Systems) (human, UniProt P16109 42-771); experiment: recombinant soluble P-selectin (0-40 ng) after SDS-PAGE on nitrocellulose, detection with HRP goat anti-human Fc
T2 construct: extracellular domain; also called recombinant soluble P-selectin; recombinant P-selectin
T2 sequence (looked up): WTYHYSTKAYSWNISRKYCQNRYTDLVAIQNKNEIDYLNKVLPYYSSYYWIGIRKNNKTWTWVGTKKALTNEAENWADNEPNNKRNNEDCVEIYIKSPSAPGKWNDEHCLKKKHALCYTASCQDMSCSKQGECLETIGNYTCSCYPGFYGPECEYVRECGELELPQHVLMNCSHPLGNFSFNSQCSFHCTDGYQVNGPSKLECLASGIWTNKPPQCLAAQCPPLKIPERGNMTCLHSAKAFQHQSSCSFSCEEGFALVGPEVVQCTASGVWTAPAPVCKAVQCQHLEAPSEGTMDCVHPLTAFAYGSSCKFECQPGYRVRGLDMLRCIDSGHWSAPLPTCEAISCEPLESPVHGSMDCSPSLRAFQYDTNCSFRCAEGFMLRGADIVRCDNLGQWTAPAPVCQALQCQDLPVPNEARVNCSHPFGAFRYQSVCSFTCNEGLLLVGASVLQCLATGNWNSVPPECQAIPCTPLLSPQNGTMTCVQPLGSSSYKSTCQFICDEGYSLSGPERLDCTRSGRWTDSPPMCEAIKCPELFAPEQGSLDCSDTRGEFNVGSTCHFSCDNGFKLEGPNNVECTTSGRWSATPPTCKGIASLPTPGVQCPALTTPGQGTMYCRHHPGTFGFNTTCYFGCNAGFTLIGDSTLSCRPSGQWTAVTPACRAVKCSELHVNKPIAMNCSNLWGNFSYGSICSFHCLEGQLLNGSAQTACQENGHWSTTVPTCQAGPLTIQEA
Method: 1. Binding of HuSZ51-DSPAalpha1 to P-selectin on a nitrocellulose membrane. The indicated amounts of recombinant soluble P-selectin (R&D systems), 0, 5, 10, 20, or 40 ng, along with 10 ng of human IgG1, were separated on SDS-PAGE gels and then transferred onto nitrocellulose membranes. One membrane was incubated with HuSZ51, and the second was incubated with HuSZ51-DSPAalpha1. After washing, bound HuSZ51 or HuSZ51-DSPAalpha1 was detected by HRP-conjugated goat anti-human Fc. The intensity of human IgG1 lane, which is also detected by HRP-conjugated goat anti-human Fc was used as a normalization control.

binding result [1]: binds
B1: SZ51, murine anti-P-selectin monoclonal antibody (antibody, V domains shown)
VH: QVQLLESGPELKKPGETVKISCKASGYTFTNYGMNWVKQAPGKGLKWMGWINTYTGEPIYADDFKGRFAFSLETSASTAHLQINSLKNEDMATYFCARGRGGNAMDYWGQGTSVTVSS
VL: ELQMTQSPSSLSASVGDRVTISCSASQDISNYLNWYQQKPDGPVKLLIYYTTSNLHSGVPSRFSGSGSGTDYSLTISNLEPEDIATYYCQQYNKVPWTFGGGTKLEIKR
notes: Variable region DNA in GenBank gi:4099282 (heavy) and gi:4099284 (light); also called parental monoclonal antibody SZ51; anti-P-selectin mouse monoclonal antibody

binding result [2]: binds
B2: HuSZ51, chimeric mouse-human anti-P-selectin monoclonal antibody (antibody, human IgG1, V domains shown)
VH: B1 VH
VL: B1 VL
